Measurements as given in patent US20260139033A1 (PRANA THERAPIES, published 2026).
Each block holds one binder with its values, some of them ahead of it.

Columns and labels:
[1] = target: IL-4R on human donor PBMC (B-cells) (human, UniProt P24394 26-825); assay: cell-based or functional assay
[2] = target: T1, recombinant human TSLP (human, UniProt Q969D9 29-159); assay: cell-based or functional assay
[3] = target: T1, recombinant human TSLP; assay: SPR; column 'SPR (Biophysical binding): TSLP (pM)'
Procedure: (§1) SPR studies were carried out on a Biacore 3000 instrument with a CM5 chip at 25° C. The running buffer comprised 25 mM Hepes, pH 7.5, 150 mM NaCl, 0.5 mg/ml BSA, 0.005% P20. Antibodies were captured via protein A using approximately a 1/50 dilution of each antibody in the running buffer and a 2-minute contact time at a 10 μl/min flow rate. Protein A was immobilized on a CM5 chip via standard amine coupling chemistry in 10 mM acetate pH 4.5. Approximately 800 RU of each antibody was captured. The surfaces were regenerated via a 10 mM glycine pH 1.5 between cycles. Between assays the chip was regenerated with a 2-minute pulse of 100 mM Phosphoric acid. Prior to setting up multicycle kinetic analysis analyte concentration was determined spectrophotometrically using an extinction coefficient of 72,880 M⁻¹ cm⁻¹ for IL4R and 18450 M⁻¹ cm⁻¹ for the TSLP proteins respectively. Analyte samples were prepared by diluting stocks into running buffer to a final concentration of 500 nM for the IL-4R and 25 nM for TSLP followed by serially diluting with a 2-fold series with an association time of 2.5 minutes at a 50 μl/min flow rate. Dissociation data was collected for a period of 1600 seconds. Raw data was analyzed using the Scrubber2 (Biologic Software, AU) program using a double referencing procedure where compound signal is corrected to a blank surface and a buffer injection over the captured antibody surface. Kinetic data was analyzed by fitting to a simple 1:1 binding model. […] The candidates are further described in Table 3.

[4] = target: T1, recombinant human TSLP; assay: SPR (Biacore 3000, CM5 chip, 25 C): complex captured via protein A, TSLP as analyte, 1:1 fit; column 'TSLP binding(pM)'
Procedure: as §1

IC50, upregulation of CD23 in response to IL-4 in PBMCs [1]: 12.5 nM | IC50, TARC secretion in response to TSLP in PBMCs [2]: 4.3 nM | Kd [3]: 0.0168 nM | Kd [4]: 0.0168 nM
B1: Candidate-24: Dupilumab-YTE_Linker-GS4_TSLP TRAP 2 (bispecific antibody, human IgG4 S228P, kappa)
heavy: EVQLVESGGGLEQPGGSLRLSCAGSGFTFRDYAMTWVRQAPGKGLEWVSSISGSGGNTYYADSVKGRFTISRDNSKNTLYLQMNSLRAEDTAVYYCAKDRLSITIRPRYYGLDVWGQGTTVTVSSASTKGPSVFPLAPCSRSTSESTAALGCLVKDYFPEPVTVSWNSGALTSGVHTFPAVLQSSGLYSLSSVVTVPSSSLGTKTYTCNVDHKPSNTKVDKRVESKYGPPCPPCPAPEFLGGPSVFLFPPKPKDTLYITREPEVTCVVVDVSQEDPEVQFNWYVDGVEVHNAKTKPREEQFNSTYRVVSVLTVLHQDWLNGKEYKCKVSNKGLPSSIEKTISKAKGQPREPQVYTLPPSQEEMTKNQVSLTCLVKGFYPSDIAVEWESNGQPENNYKTTPPVLDSDGSFFLYSRLTVDKSRWQEGNVFSCSVMHEALHNHYTQKSLSLSLGGGGGSGGGGSGGGGSGGGGSESGYAQNGDLEDAELDDYSFSCYSQLEVNGSQHSLTCAFEDPDVNITNLEFEICGALVEVKCLNFRKLQEIYFIETKKFLLIGKSNICVKVGEKSLTCKKIDLTTIVKPEAPFDLSVVYREGANDFVVTFNTSHLQKKYVKVLMHDVAYRQEKDENKWTHVNLSSTKLTLLQRKLQPAAMYEIKVRSIPDHYFKGFWSEWSPSYYFRTPEINNSSGEMDGGSGGSGGSGGSGGSGGSGGSGGSGGSGGSGGSGGSGGSGGSGGSGGSGGSGGSGGSGGSGAAEGVQIQIIYFNLETVQVTWNASKYSRTNLTFHYRFNGDEAYDQCTNYLLQEGHTSGCLLDAEQRDDILYFSIRNGTHPVFTASRWMVYYLKPSSPKHVRFSWHQDAVTVTCSDLSYGDLLYEVQYRSPFDTEWQSKQENTCNVTIEGLDAEKCYSFWVRVKAMEDVYGPDTYPSDWSEVTCWQRGEIRDACAETPTPPKPKLSK
light: DIVMTQSPLSLPVTPGEPASISCRSSQSLLYSIGYNYLDWYLQKSGQSPQLLIYLGSNRASGVPDRFSGSGSGTDFTLKISRVEAEDVGFYYCMQALQTPYTFGQGTKLEIKRTVAAPSVFIFPPSDEQLKSGTASVVCLLNNFYPREAKVQWKVDNALQSGNSQESVTEQDSKDSTYSLSSTLTLSKADYEKHKVYACEVTHQGLSSPVTKSFNRGEC
notes: The chains here are built from the component entries; TRAP sits at the C-terminus of the heavy chain

IC50, IL-4 biological assay (CD23 upregulation in PBMCs) [1]: > 200 nM | IC50, PBMC assay in response to TSLP (TARC secretion) [2]: 0.43 nM | Kd [3]: 0.019 nM | Kd [4]: 0.019 nM
B2: Candidate-22: TSLP TRAP 2_Linker-GS4_Dupilumab-YTE (bispecific antibody, human IgG4 S228P, kappa)
heavy: ESGYAQNGDLEDAELDDYSFSCYSQLEVNGSQHSLTCAFEDPDVNITNLEFEICGALVEVKCLNFRKLQEIYFIETKKFLLIGKSNICVKVGEKSLTCKKIDLTTIVKPEAPFDLSVVYREGANDFVVTFNTSHLQKKYVKVLMHDVAYRQEKDENKWTHVNLSSTKLTLLQRKLQPAAMYEIKVRSIPDHYFKGFWSEWSPSYYFRTPEINNSSGEMDGGSGGSGGSGGSGGSGGSGGSGGSGGSGGSGGSGGSGGSGGSGGSGGSGGSGGSGGSGGSGAAEGVQIQIIYFNLETVQVTWNASKYSRTNLTFHYRFNGDEAYDQCTNYLLQEGHTSGCLLDAEQRDDILYFSIRNGTHPVFTASRWMVYYLKPSSPKHVRFSWHQDAVTVTCSDLSYGDLLYEVQYRSPFDTEWQSKQENTCNVTIEGLDAEKCYSFWVRVKAMEDVYGPDTYPSDWSEVTCWQRGEIRDACAETPTPPKPKLSKGGGGSGGGGSGGGGSGGGGSEVQLVESGGGLEQPGGSLRLSCAGSGFTFRDYAMTWVRQAPGKGLEWVSSISGSGGNTYYADSVKGRFTISRDNSKNTLYLQMNSLRAEDTAVYYCAKDRLSITIRPRYYGLDVWGQGTTVTVSSASTKGPSVFPLAPCSRSTSESTAALGCLVKDYFPEPVTVSWNSGALTSGVHTFPAVLQSSGLYSLSSVVTVPSSSLGTKTYTCNVDHKPSNTKVDKRVESKYGPPCPPCPAPEFLGGPSVFLFPPKPKDTLYITREPEVTCVVVDVSQEDPEVQFNWYVDGVEVHNAKTKPREEQFNSTYRVVSVLTVLHQDWLNGKEYKCKVSNKGLPSSIEKTISKAKGQPREPQVYTLPPSQEEMTKNQVSLTCLVKGFYPSDIAVEWESNGQPENNYKTTPPVLDSDGSFFLYSRLTVDKSRWQEGNVFSCSVMHEALHNHYTQKSLSLSLG
light: B1 light
notes: The chains here are built from the component entries; TRAP sits at the N-terminus of the heavy chain

IC50, IL-4 biological assay (CD23 upregulation in PBMCs) [1]: > 200 nM | IC50, PBMC assay in response to TSLP (TARC secretion) [2]: 2.3 nM | Kd [3]: 0.0208 nM | Kd [4]: 0.0208 nM
B3: Candidate-21: TSLP TRAP 1_Linker-GS4_Dupilumab-YTE (bispecific antibody, human IgG4 S228P, kappa)
heavy: GAAEGVQIQIIYFNLETVQVTWNASKYSRTNLTFHYRFNGDEAYDQCTNYLLQEGHTSGCLLDAEQRDDILYFSIRNGTHPVFTASRWMVYYLKPSSPKHVRFSWHQDAVTVTCSDLSYGDLLYEVQYRSPFDTEWQSKQENTCNVTIEGLDAEKCYSFWVRVKAMEDVYGPDTYPSDWSEVTCWQRGEIRDACAETPTPPKPKLSKGGSGGSGGSGGSGGSGGSGGSGGSGGSGGSGGSGGSGGSGGSGGSGGSGGSGGSGGSGGSESGYAQNGDLEDAELDDYSFSCYSQLEVNGSQHSLTCAFEDPDVNITNLEFEICGALVEVKCLNFRKLQEIYFIETKKFLLIGKSNICVKVGEKSLTCKKIDLTTIVKPEAPFDLSVVYREGANDFVVTFNTSHLQKKYVKVLMHDVAYRQEKDENKWTHVNLSSTKLTLLQRKLQPAAMYEIKVRSIPDHYFKGFWSEWSPSYYFRTPEINNSSGEMDGGGGSGGGGSGGGGSGGGGSEVQLVESGGGLEQPGGSLRLSCAGSGFTFRDYAMTWVRQAPGKGLEWVSSISGSGGNTYYADSVKGRFTISRDNSKNTLYLQMNSLRAEDTAVYYCAKDRLSITIRPRYYGLDVWGQGTTVTVSSASTKGPSVFPLAPCSRSTSESTAALGCLVKDYFPEPVTVSWNSGALTSGVHTFPAVLQSSGLYSLSSVVTVPSSSLGTKTYTCNVDHKPSNTKVDKRVESKYGPPCPPCPAPEFLGGPSVFLFPPKPKDTLYITREPEVTCVVVDVSQEDPEVQFNWYVDGVEVHNAKTKPREEQFNSTYRVVSVLTVLHQDWLNGKEYKCKVSNKGLPSSIEKTISKAKGQPREPQVYTLPPSQEEMTKNQVSLTCLVKGFYPSDIAVEWESNGQPENNYKTTPPVLDSDGSFFLYSRLTVDKSRWQEGNVFSCSVMHEALHNHYTQKSLSLSLG
light: B1 light
notes: TRAP sits at the N-terminus of the heavy chain
